Numbering of substitutions follows the chain as printed. Read-outs that look alike come from different tables or passages of the source.
Assays:
Test in all cases: SPR
[1] = target: CA645 gL4gH5 Fab (human) [IgG part: P01857]
[2] = target: CA645 gL4gH5 Fab (human) [IgG part: P01857]; remark: listed apart in the source
[3] = target: CA645 gL4gH5 Fab (human) [IgG part: P01857]; remark: listed apart in the source
[4] = target: CA645 gL4gH5 Fab (human) [IgG part: P01857]; remark: listed apart in the source
[5] = target: CA645 gL4gH5 Fab (human) [IgG part: P01857]; remark: listed apart in the source
[6] = target: CA645 gL4gH5 Fab (human) [IgG part: P01857]; remark: listed apart in the source
human serum albumin [7] = target: T1, human serum albumin (Homo sapiens, UniProt P02768)
human serum albumin [8] = target: human serum albumin (Homo sapiens, UniProt P02768); remark: listed apart in the source
human serum albumin [9] = target: T1, human serum albumin; remark: listed apart in the source
human serum albumin [10] = target: T1, human serum albumin; remark: listed apart in the source
mouse serum albumin = mouse serum albumin (Mus musculus, UniProt P07724)
mouse serum albumin, sequence (P07724 25-608): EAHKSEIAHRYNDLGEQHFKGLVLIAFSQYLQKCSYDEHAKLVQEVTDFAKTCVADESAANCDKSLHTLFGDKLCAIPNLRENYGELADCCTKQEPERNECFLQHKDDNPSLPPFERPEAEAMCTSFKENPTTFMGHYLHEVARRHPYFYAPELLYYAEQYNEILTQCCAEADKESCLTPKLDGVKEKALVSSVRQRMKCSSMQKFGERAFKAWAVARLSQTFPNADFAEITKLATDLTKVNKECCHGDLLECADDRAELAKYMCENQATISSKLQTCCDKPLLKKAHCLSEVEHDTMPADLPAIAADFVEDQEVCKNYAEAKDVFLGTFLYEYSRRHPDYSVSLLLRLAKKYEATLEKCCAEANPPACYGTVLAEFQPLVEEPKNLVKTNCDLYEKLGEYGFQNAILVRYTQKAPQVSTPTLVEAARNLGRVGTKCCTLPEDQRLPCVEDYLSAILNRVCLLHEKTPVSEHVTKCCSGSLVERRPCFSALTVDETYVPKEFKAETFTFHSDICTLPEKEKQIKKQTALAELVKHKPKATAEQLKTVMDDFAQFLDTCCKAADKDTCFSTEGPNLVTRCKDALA

human serum albumin [11] = target: T1, human serum albumin; remark: listed apart in the source

human serum albumin (from UniProt P02768 25-609) (natural protein)
Kd [1]: 1.8 nM
Kd [2]: 12.5 nM
Kd [3]: 1.23 nM
Kd [4]: 4.6 nM
Kd [5]: 13.3 nM
Kd [6]: 10.7 nM

B1: CA645 gL5gH5 Fab (Fab, V domains shown)
VH: EVQLLESGGGLVQPGGSLRLSCAVSGIDLSNYAINWVRQAPGKGLEWIGIIWASGTTFYATWAKGRFTISRDNSKNTVYLQMNSLRAEDTAVYYCARTVPGYSTAPYFDLWGQGTLVTVSS
VL: DIQMTQSPSSVSASVGDRVTITCQSSPSVASNFLSWYQQKPGKAPKLLIYEASKLTSGVPSRFSGSGSGTDFTLTISSLQPEDFATYYCGGGYSSISDTTFGGGTKVEIK
Kd (human serum albumin [7]): 453 nM
koff (human serum albumin [7]): 0.0571 s⁻¹
kon (human serum albumin [7]): 126000 M⁻¹ s⁻¹

B2: CA645 gL19gH5 Fab (Fab, V domains shown)
VH: B1 VH
VL: B1 VL with A30W, S31D
Kd (human serum albumin [8]): 5 nM

B3: CA645 gL5gH47 Fab (Fab, V domains shown)
VH: B1 VH with T104S
VL: B1 VL
Kd (human serum albumin [9]): 52000 nM

B4: CA645 gL4gH37 Fab (Fab, V domains shown)
VH: B1 VH with F58E
VL: B1 VL with A30W
Kd (human serum albumin [7]): 955 nM
koff (human serum albumin [7]): 0.0583 s⁻¹
kon (human serum albumin [7]): 61000 M⁻¹ s⁻¹

B5: CA645 gL5gH37 Fab (Fab, V domains shown)
VH: B1 VH with F58E
VL: B1 VL
binding result (human serum albumin [10]): no binding

B6: CA645 recombinant rabbit Fab (Fab, V domains shown)
VH: QSLEESGGRLVTPGTPLTLTCTVSGIDLSNYAINWVRQAPGKGLEWIGIIWASGTTFYATWAKGRFTISRPSTTVDLEMTSLTTADTATYFCARTVPGYSTAPYFDLWGPGTLVTVSS
VL: AAVLTQTPSPVSAAVGGTVTINCQSSPSVWSNFLSWYQQKPGQPPKLLIYEASKLTSGVPSRFKGSGSGTQFTLTISDVQCGDAATYYCGGGYSSISDTTFGGGTKVVVK
Kd (mouse serum albumin): 2.6 nM
Kd (human serum albumin [11]): 0.31 nM
